From the MegaScale stability set (Tsuboyama et al. 2023)

B1: 1ZHC (parent)
chain: HEFRDEISVLKANNPHFDKIFEKHNQLDDDIKTAEQQNASDAEVSHMKKQKLKLKDEIHSMIIEYREK

Variants of: B1
Test: folding stability dG (cDNA display proteolysis); higher = more stable
Settings: PBS, room temperature

Variant	folding stability dG [kcal/mol]
HEFRDEISVLKANNPHFDKIFEKHNQLDDDIKTAEQHNASDAEVSHMKKQKLKLKDEIHSMIIEYREK [Q37H]	1.05
HEFRDEISVLKANNPHFDKIFEKHNQLDDDIKTAEQMNASDAEVSHMKKQKLKLKDEIHSMIIEYREK [Q37M]	0.926
HEFRDEISVLKANNPHFDKIFEKHNQLDDDIKTAEQWNASDAEVSHMKKQKLKLKDEIHSMIIEYREK [Q37W]	0.426
HEFRDEISVLKANNPHFDKIFEKHNQLDDDIKTAEQTNASDAEVSHMKKQKLKLKDEIHSMIIEYREK [Q37T]	0.882
HEFRDEISVLKANNPHFDKIFEKHNQLDDDIKTAEQYNASDAEVSHMKKQKLKLKDEIHSMIIEYREK [Q37Y]	0.718
HEFRDEISVLKANNPHFDKIFEKHNQLDDDIKTAEQKNASDAEVSHMKKQKLKLKDEIHSMIIEYREK [Q37K]	0.764
HEFRDEISVLKANNPHFDKIFEKHNQLDDDIKTAEQINASDAEVSHMKKQKLKLKDEIHSMIIEYREK [Q37I]	0.631
HEFRDEISVLKANNPHFDKIFEKHNQLDDDIKTAEQNNASDAEVSHMKKQKLKLKDEIHSMIIEYREK [Q37N]	1.38
HEFRDEISVLKANNPHFDKIFEKHNQLDDDIKTAEQFNASDAEVSHMKKQKLKLKDEIHSMIIEYREK [Q37F]	0.569
HEFRDEISVLKANNPHFDKIFEKHNQLDDDIKTAEQLNASDAEVSHMKKQKLKLKDEIHSMIIEYREK [Q37L]	0.867
HEFRDEISVLKANNPHFDKIFEKHNQLDDDIKTAEQSNASDAEVSHMKKQKLKLKDEIHSMIIEYREK [Q37S]	1
HEFRDEISVLKANNPHFDKIFEKHNQLDDDIKTAEQRNASDAEVSHMKKQKLKLKDEIHSMIIEYREK [Q37R]	1.51
HEFRDEISVLKANNPHFDKIFEKHNQLDDDIKTAEQGNASDAEVSHMKKQKLKLKDEIHSMIIEYREK [Q37G]	0.943
HEFRDEISVLKANNPHFDKIFEKHNQLDDDIKTAEQVNASDAEVSHMKKQKLKLKDEIHSMIIEYREK [Q37V]	0.447
HEFRDEISVLKANNPHFDKIFEKHNQLDDDIKTAEQQNASIAEVSHMKKQKLKLKDEIHSMIIEYREK [D41I]	0.951
HEFRDEISVLKANNPHFDKIFEKHNQLDDDIKTAEQQNASEAEVSHMKKQKLKLKDEIHSMIIEYREK [D41E]	1.33
HEFRDEISVLKANNPHFDKIFEKHNQLDDDIKTAEQQNASHAEVSHMKKQKLKLKDEIHSMIIEYREK [D41H]	0.871
HEFRDEISVLKANNPHFDKIFEKHNQLDDDIKTAEQQNASKAEVSHMKKQKLKLKDEIHSMIIEYREK [D41K]	0.873
HEFRDEISVLKANNPHFDKIFEKHNQLDDDIKTAEQQNASGAEVSHMKKQKLKLKDEIHSMIIEYREK [D41G]	0.41
HEFRDEISVLKANNPHFDKIFEKHNQLDDDIKTAEQQNASAAEVSHMKKQKLKLKDEIHSMIIEYREK [D41A]	1.23
HEFRDEISVLKANNPHFDKIFEKHNQLDDDIKTAEQQNASFAEVSHMKKQKLKLKDEIHSMIIEYREK [D41F]	0.919
HEFRDEISVLKANNPHFDKIFEKHNQLDDDIKTAEQQNASCAEVSHMKKQKLKLKDEIHSMIIEYREK [D41C]	0.771
HEFRDEISVLKANNPHFDKIFEKHNQLDDDIKTAEQQNLSDAEVSHMKKQKLKLKDEIHSMIIEYREK [A39L]	1.36
HEFRDEISVLKANNPHFDKIFEKHNQLDDDIKTAEQQNMSDAEVSHMKKQKLKLKDEIHSMIIEYREK [A39M]	0.936
HEFRDEISVLKANNPHFDKIFEKHNQLDDDIKTAEQQNRSDAEVSHMKKQKLKLKDEIHSMIIEYREK [A39R]	1.33
HEFRDEISVLKANNPHFDKIFEKHNQLDDDIKTAEQQNYSDAEVSHMKKQKLKLKDEIHSMIIEYREK [A39Y]	0.83
HEFRDEISVLKANNPHFDKIFEKHNQLDDDIKTAEQQNISDAEVSHMKKQKLKLKDEIHSMIIEYREK [A39I]	0.873

Variant	folding stability dG [kcal/mol]
HEFRDEISVLKANNPHFDKIFEKHNQLDDDIKTAEQQNESDAEVSHMKKQKLKLKDEIHSMIIEYREK [A39E]	0.246
HEFRDEISVLKANNPHFDKIFEKHNQLDDDIKTAEQQNDSDAEVSHMKKQKLKLKDEIHSMIIEYREK [A39D]	0.034
HEFRDEISVLKANNPHFDKIFEKHNQLDDDIKTAEQQNFSDAEVSHMKKQKLKLKDEIHSMIIEYREK [A39F]	1.07
HEFRDEISVLKANNPHFDKIFEKHNQLDDDIKTAEQQNGSDAEVSHMKKQKLKLKDEIHSMIIEYREK [A39G]	0.787
HEFRDEISVLKANNPHFDKIFEKHNQLDDDIKTAEQQNQSDAEVSHMKKQKLKLKDEIHSMIIEYREK [A39Q]	0.259
HEFRDEISVLKANNPHFDKIFEKHNQLDDDIKTAEQQNHSDAEVSHMKKQKLKLKDEIHSMIIEYREK [A39H]	0.973
HEFRDEISVLKANNPHFDKIFEKHNQLDDDIKTAEQQNVSDAEVSHMKKQKLKLKDEIHSMIIEYREK [A39V]	0.986
HEFRDEISVLKANNPHFDKIFEKHNQLDDDIKTAEQQNSSDAEVSHMKKQKLKLKDEIHSMIIEYREK [A39S]	0.359
HEFRDEISVLKANNPHFDKIFEKHNQLDDDIKTAEQQNNSDAEVSHMKKQKLKLKDEIHSMIIEYREK [A39N]	0.078
HEFRDEISVLKANNPHFDKIFEKHNQLDDDIKTAEQQNCSDAEVSHMKKQKLKLKDEIHSMIIEYREK [A39C]	0.897
HEFRDEISVLKANNPHFDKIFEKHNQLDDDIKTAEQQNKSDAEVSHMKKQKLKLKDEIHSMIIEYREK [A39K]	1.1
HEFRDEISVLKANNPHFDKIFEKHNQLDDDIKTAEQQNPSDAEVSHMKKQKLKLKDEIHSMIIEYREK [A39P]	0.131
HEFRDEISVLKANNPHFDKIFEKHNQLDDDIKTAEQQNTSDAEVSHMKKQKLKLKDEIHSMIIEYREK [A39T]	0.09
HEFRDEISVLKANNPHFDKIFEKHNQLDDDIKTAEQQNWSDAEVSHMKKQKLKLKDEIHSMIIEYREK [A39W]	1.3
HEFRDEISVLKANNPHFDKIFEKHNQLDDDIKTAEQQLASDAEVSHMKKQKLKLKDEIHSMIIEYREK [N38L]	0.276
HEFRDEISVLKANNPHFDKIFEKHNQLDDDIKTAEQQEASDAEVSHMKKQKLKLKDEIHSMIIEYREK [N38E]	-0.059
HEFRDEISVLKANNPHFDKIFEKHNQLDDDIKTAEQQGASDAEVSHMKKQKLKLKDEIHSMIIEYREK [N38G]	1.55
HEFRDEISVLKANNPHFDKIFEKHNQLDDDIKTAEQQWASDAEVSHMKKQKLKLKDEIHSMIIEYREK [N38W]	-0.188
HEFRDEISVLKANNPHFDKIFEKHNQLDDDIKTAEQQAASDAEVSHMKKQKLKLKDEIHSMIIEYREK [N38A]	0.467
HEFRDEISVLKANNPHFDKIFEKHNQLDDDIKTAEQQPASDAEVSHMKKQKLKLKDEIHSMIIEYREK [N38P]	-0.007
HEFRDEISVLKANNPHFDKIFEKHNQLDDDIKTAEQQCASDAEVSHMKKQKLKLKDEIHSMIIEYREK [N38C]	0.923
HEFRDEISVLKANNPHFDKIFEKHNQLDDDIKTAEQQTASDAEVSHMKKQKLKLKDEIHSMIIEYREK [N38T]	0.312
HEFRDEISVLKANNPHFDKIFEKHNQLDDDIKTAEQQFASDAEVSHMKKQKLKLKDEIHSMIIEYREK [N38F]	0.925
HEFRDEISVLKANNPHFDKIFEKHNQLDDDIKTAEQQDASDAEVSHMKKQKLKLKDEIHSMIIEYREK [N38D]	0.358
HEFRDEISVLKANNPHFDKIFEKHNQLDDDIKTAEQQMASDAEVSHMKKQKLKLKDEIHSMIIEYREK [N38M]	0.449
HEFRDEISVLKANNPHFDKIFEKHNQLDDDIKTAEQQIASDAEVSHMKKQKLKLKDEIHSMIIEYREK [N38I]	-0.331
HEFRDEISVLKANNPHFDKIFEKHNQLDDDIKTAEQQYASDAEVSHMKKQKLKLKDEIHSMIIEYREK [N38Y]	0.303

Variant	folding stability dG [kcal/mol]
HEFRDEISVLKANNPHFDKIFEKHNQLDDDIKTAEQQRASDAEVSHMKKQKLKLKDEIHSMIIEYREK [N38R]	0.634
HEFRDEISVLKANNPHFDKIFEKHNQLDDDIKTAEQQKASDAEVSHMKKQKLKLKDEIHSMIIEYREK [N38K]	0.548
HEFRDEISVLKANNPHFDKIFEKHNQLDDDIKTAEQQHASDAEVSHMKKQKLKLKDEIHSMIIEYREK [N38H]	0.624
HEFRDEISVLKANNPHFDKIFEKHNQLDDDIKTAEQQQASDAEVSHMKKQKLKLKDEIHSMIIEYREK [N38Q]	-0.49
HEFRDEISVLKANNPHFDKIFEKHNQLDDDIKTAEQQSASDAEVSHMKKQKLKLKDEIHSMIIEYREK [N38S]	0.358
HEFRDEISVLKANNPHFDKIFEKHNQLDDDIKTAEQQVASDAEVSHMKKQKLKLKDEIHSMIIEYREK [N38V]	-0.172
HEFRDEISVLKANNPHFDKIFEKHNQLDDDIKTAEQQNAGDAEVSHMKKQKLKLKDEIHSMIIEYREK [S40G]	0.619
HEFRDEISVLKANNPHFDKIFEKHNQLDDDIKTAEQQNACDAEVSHMKKQKLKLKDEIHSMIIEYREK [S40C]	0.351
HEFRDEISVLKANNPHFDKIFEKHNQLDDDIKTAEQQNAHDAEVSHMKKQKLKLKDEIHSMIIEYREK [S40H]	0.256
HEFRDEISVLKANNPHFDKIFEKHNQLDDDIKTAEQQNATDAEVSHMKKQKLKLKDEIHSMIIEYREK [S40T]	-0.074
HEFRDEISVLKANNPHFDKIFEKHNQLDDDIKTAEQQNAQDAEVSHMKKQKLKLKDEIHSMIIEYREK [S40Q]	0.039
HEFRDEISVLKANNPHFDKIFEKHNQLDDDIKTAEQQNADDAEVSHMKKQKLKLKDEIHSMIIEYREK [S40D]	0.774
HEFRDEISVLKANNPHFDKIFEKHNQLDDDIKTAEQQNAVDAEVSHMKKQKLKLKDEIHSMIIEYREK [S40V]	-0.512
HEFRDEISVLKANNPHFDKIFEKHNQLDDDIKTAEQQNAYDAEVSHMKKQKLKLKDEIHSMIIEYREK [S40Y]	-0.236
HEFRDEISVLKANNPHFDKIFEKHNQLDDDIKTAEQQNANDAEVSHMKKQKLKLKDEIHSMIIEYREK [S40N]	1.12
HEFRDEISVLKANNPHFDKIFEKHNQLDDDIKTAEQQNAFDAEVSHMKKQKLKLKDEIHSMIIEYREK [S40F]	0.13
HEFRDEISVLKANNPHFDKIFEKHNQLDDDIKTAEQQNAKDAEVSHMKKQKLKLKDEIHSMIIEYREK [S40K]	0.104
HEFRDEISVLKANNPHFDKIFEKHNQLDDDIKTAEQQNAIDAEVSHMKKQKLKLKDEIHSMIIEYREK [S40I]	-0.234
HEFRDEISVLKANNPHFDKIFEKHNQLDDDIKTAEQQNALDAEVSHMKKQKLKLKDEIHSMIIEYREK [S40L]	0.393
HEFRDEISVLKANNPHFDKIFEKHNQLDDDIKTAEQQNAWDAEVSHMKKQKLKLKDEIHSMIIEYREK [S40W]	-0.874
HEFRDEISVLKANNPHFDKIFEKHNQLDDDIKTAEQQNARDAEVSHMKKQKLKLKDEIHSMIIEYREK [S40R]	0.251
HEFRDEISVLKANNPHFDKIFEKHNQLDDDIKTAEQQNAADAEVSHMKKQKLKLKDEIHSMIIEYREK [S40A]	0.255
HEFRDEISVLKANNPHFDKIFEKHNQLDDDIKTAEQQNAMDAEVSHMKKQKLKLKDEIHSMIIEYREK [S40M]	-0.003
HEFRDEISVLKANNPHFDKIFEKHNQLDDDIKTAEQQNAPDAEVSHMKKQKLKLKDEIHSMIIEYREK [S40P]	0.855
HEFRDEISVLKANNPHFDKIFEKHNQLDDDIKTAEQQNAEDAEVSHMKKQKLKLKDEIHSMIIEYREK [S40E]	0.469
